The text below walks through data of PMC2655686.

The target in this data set is TRF2BH (basic region + TRFH) (UniProt Q15554 45-289). Nature of the data set: EMSA.
Sequence of TRF2BH (basic region + TRFH) (Q15554 45-289): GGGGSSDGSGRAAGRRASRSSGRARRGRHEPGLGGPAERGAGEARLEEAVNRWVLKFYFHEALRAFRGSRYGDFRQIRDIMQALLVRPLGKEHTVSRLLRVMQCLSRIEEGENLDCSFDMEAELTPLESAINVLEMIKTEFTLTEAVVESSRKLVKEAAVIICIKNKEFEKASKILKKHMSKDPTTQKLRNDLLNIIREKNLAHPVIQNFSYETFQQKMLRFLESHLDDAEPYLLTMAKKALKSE

Take TTAGGGTTAGGGTTAGGGTTAGGGTTAGGGTTAGGGTTAGGG (structured_DNA) [T7]: the binding result was “binds”.
